Test results: patent US20230357348A1 (AstraZeneca / MedImmune, published 2023)
Starred links: 1 amine or outer side, 2 acyl side, 3 side chain; linkers in the order of their positions; H or OH if unused. Non-standard residues stand in square brackets, D forms with d. Groups on a side chain read outwards from the residue. No end group written: not given here. *: point of attachment. C18 diacid = O=C(O)CCCCCCCCCCCCCCCCC(=O)*; γGlu = O=C(O)[C@H](CCC(=O)[*:2])N[*:1]; αMeF = C[C@](N)(Cc1ccccc1)C(=O)O; AEEA = NCCOCCOCC(=O)O; Aib = CC(C)(N)C(=O)O

Legend:
[1] = molecular target: human GLP-1 receptor (hGLP-1R) (human, UniProt P43220 24-463); assay: cell-based or functional assay
[2] = molecular target: human glucagon receptor (hGCGR) (human, UniProt P47871 26-477); assay: cell-based or functional assay
Sequence of human glucagon receptor (hGCGR) (P47871 26-477): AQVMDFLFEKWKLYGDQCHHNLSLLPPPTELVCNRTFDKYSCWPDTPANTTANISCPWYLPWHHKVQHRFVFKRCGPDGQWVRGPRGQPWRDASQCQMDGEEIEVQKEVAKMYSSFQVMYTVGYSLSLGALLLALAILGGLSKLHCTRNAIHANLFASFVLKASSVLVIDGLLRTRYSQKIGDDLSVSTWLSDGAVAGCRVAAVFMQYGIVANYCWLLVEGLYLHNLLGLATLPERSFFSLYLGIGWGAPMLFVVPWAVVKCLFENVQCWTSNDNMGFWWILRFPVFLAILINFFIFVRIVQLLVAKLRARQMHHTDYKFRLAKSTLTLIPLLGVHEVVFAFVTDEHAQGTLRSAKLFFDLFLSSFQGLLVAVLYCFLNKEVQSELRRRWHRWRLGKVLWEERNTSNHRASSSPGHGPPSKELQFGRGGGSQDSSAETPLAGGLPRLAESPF

Binder | hGLP-1R EC50 (pM) [1] [pM] | hGluc-R EC50 (pM) [2] [pM]
H[Aib]QGTFTSDVSK[αMeF]LDKK([AEEA-AEEA-γGlu-C18 diacid])RAQDFVRWLK[Aib]TE-OH (N-terminus assumed; SMILES CC(C)C[C@H](NC(=O)[C@H](Cc1c[nH]c2ccccc12)NC(=O)[C@H](CCCNC(=N)N)NC(=O)[C@@H](NC(=O)[C@H](Cc1ccccc1)NC(=O)[C@H](CC(=O)O)NC(=O)[C@H](CCC(N)=O)NC(=O)[C@H](C)NC(=O)[C@H](CCCNC(=N)N)NC(=O)[C@H](CCCCNC(=O)COCCOCCNC(=O)COCCOCCNC(=O)CC[C@H](NC(=O)CCCCCCCCCCCCCCCCC(=O)O)C(=O)O)NC(=O)[C@H](CCCCN)NC(=O)[C@H](CC(=O)O)NC(=O)[C@H](CC(C)C)NC(=O)[C@](C)(Cc1ccccc1)NC(=O)[C@H](CCCCN)NC(=O)[C@H](CO)NC(=O)[C@@H](NC(=O)[C@H](CC(=O)O)NC(=O)[C@H](CO)NC(=O)[C@@H](NC(=O)[C@H](Cc1ccccc1)NC(=O)[C@@H](NC(=O)CNC(=O)[C@H](CCC(N)=O)NC(=O)C(C)(C)NC(=O)[C@@H](N)Cc1c[nH]cn1)[C@@H](C)O)[C@@H](C)O)C(C)C)C(C)C)C(=O)N[C@@H](CCCCN)C(=O)NC(C)(C)C(=O)N[C@H](C(=O)N[C@@H](CCC(=O)O)C(=O)O)[C@@H](C)O) [Peptide 423] | 26.1 | 2220
H[Aib]QGTFTSDVSK[αMeF]LDKK([AEEA-AEEA-γGlu-C18 diacid])RAQDFVRWLL[Aib]TK-OH (N-terminus assumed; SMILES CC(C)C[C@H](NC(=O)[C@H](Cc1c[nH]c2ccccc12)NC(=O)[C@H](CCCNC(=N)N)NC(=O)[C@@H](NC(=O)[C@H](Cc1ccccc1)NC(=O)[C@H](CC(=O)O)NC(=O)[C@H](CCC(N)=O)NC(=O)[C@H](C)NC(=O)[C@H](CCCNC(=N)N)NC(=O)[C@H](CCCCNC(=O)COCCOCCNC(=O)COCCOCCNC(=O)CC[C@H](NC(=O)CCCCCCCCCCCCCCCCC(=O)O)C(=O)O)NC(=O)[C@H](CCCCN)NC(=O)[C@H](CC(=O)O)NC(=O)[C@H](CC(C)C)NC(=O)[C@](C)(Cc1ccccc1)NC(=O)[C@H](CCCCN)NC(=O)[C@H](CO)NC(=O)[C@@H](NC(=O)[C@H](CC(=O)O)NC(=O)[C@H](CO)NC(=O)[C@@H](NC(=O)[C@H](Cc1ccccc1)NC(=O)[C@@H](NC(=O)CNC(=O)[C@H](CCC(N)=O)NC(=O)C(C)(C)NC(=O)[C@@H](N)Cc1c[nH]cn1)[C@@H](C)O)[C@@H](C)O)C(C)C)C(C)C)C(=O)N[C@@H](CC(C)C)C(=O)NC(C)(C)C(=O)N[C@H](C(=O)N[C@@H](CCCCN)C(=O)O)[C@@H](C)O) [Peptide 424] | 15.5 | 129
H[Aib]QGTFTSDVSK[αMeF]LDKK([AEEA-AEEA-γGlu-C18 diacid])RAQDFVRWLLR[Aib]K-OH (N-terminus assumed; SMILES CC(C)C[C@H](NC(=O)[C@H](Cc1c[nH]c2ccccc12)NC(=O)[C@H](CCCNC(=N)N)NC(=O)[C@@H](NC(=O)[C@H](Cc1ccccc1)NC(=O)[C@H](CC(=O)O)NC(=O)[C@H](CCC(N)=O)NC(=O)[C@H](C)NC(=O)[C@H](CCCNC(=N)N)NC(=O)[C@H](CCCCNC(=O)COCCOCCNC(=O)COCCOCCNC(=O)CC[C@H](NC(=O)CCCCCCCCCCCCCCCCC(=O)O)C(=O)O)NC(=O)[C@H](CCCCN)NC(=O)[C@H](CC(=O)O)NC(=O)[C@H](CC(C)C)NC(=O)[C@](C)(Cc1ccccc1)NC(=O)[C@H](CCCCN)NC(=O)[C@H](CO)NC(=O)[C@@H](NC(=O)[C@H](CC(=O)O)NC(=O)[C@H](CO)NC(=O)[C@@H](NC(=O)[C@H](Cc1ccccc1)NC(=O)[C@@H](NC(=O)CNC(=O)[C@H](CCC(N)=O)NC(=O)C(C)(C)NC(=O)[C@@H](N)Cc1c[nH]cn1)[C@@H](C)O)[C@@H](C)O)C(C)C)C(C)C)C(=O)N[C@@H](CC(C)C)C(=O)N[C@@H](CCCNC(=N)N)C(=O)NC(C)(C)C(=O)N[C@@H](CCCCN)C(=O)O) [Peptide 426] | 7.3 | 61.2
H[Aib]QGTFTSDVSK[αMeF]LDKK([AEEA-AEEA-γGlu-C18 diacid])RAQDFVRWLKA[Aib]G-OH (N-terminus assumed; SMILES CC(C)C[C@H](NC(=O)[C@H](Cc1c[nH]c2ccccc12)NC(=O)[C@H](CCCNC(=N)N)NC(=O)[C@@H](NC(=O)[C@H](Cc1ccccc1)NC(=O)[C@H](CC(=O)O)NC(=O)[C@H](CCC(N)=O)NC(=O)[C@H](C)NC(=O)[C@H](CCCNC(=N)N)NC(=O)[C@H](CCCCNC(=O)COCCOCCNC(=O)COCCOCCNC(=O)CC[C@H](NC(=O)CCCCCCCCCCCCCCCCC(=O)O)C(=O)O)NC(=O)[C@H](CCCCN)NC(=O)[C@H](CC(=O)O)NC(=O)[C@H](CC(C)C)NC(=O)[C@](C)(Cc1ccccc1)NC(=O)[C@H](CCCCN)NC(=O)[C@H](CO)NC(=O)[C@@H](NC(=O)[C@H](CC(=O)O)NC(=O)[C@H](CO)NC(=O)[C@@H](NC(=O)[C@H](Cc1ccccc1)NC(=O)[C@@H](NC(=O)CNC(=O)[C@H](CCC(N)=O)NC(=O)C(C)(C)NC(=O)[C@@H](N)Cc1c[nH]cn1)[C@@H](C)O)[C@@H](C)O)C(C)C)C(C)C)C(=O)N[C@@H](CCCCN)C(=O)N[C@@H](C)C(=O)NC(C)(C)C(=O)NCC(=O)O) [Peptide 425] | 11.5 | 827
H[Aib]QGTFTSDVSK[αMeF]LDRK([AEEA-AEEA-γGlu-C18 diacid])RAQDFVRWLL[Aib]TE-NH2 (N-terminus assumed; SMILES CC(C)C[C@H](NC(=O)[C@H](Cc1c[nH]c2ccccc12)NC(=O)[C@H](CCCNC(=N)N)NC(=O)[C@@H](NC(=O)[C@H](Cc1ccccc1)NC(=O)[C@H](CC(=O)O)NC(=O)[C@H](CCC(N)=O)NC(=O)[C@H](C)NC(=O)[C@H](CCCNC(=N)N)NC(=O)[C@H](CCCCNC(=O)COCCOCCNC(=O)COCCOCCNC(=O)CC[C@H](NC(=O)CCCCCCCCCCCCCCCCC(=O)O)C(=O)O)NC(=O)[C@H](CCCNC(=N)N)NC(=O)[C@H](CC(=O)O)NC(=O)[C@H](CC(C)C)NC(=O)[C@](C)(Cc1ccccc1)NC(=O)[C@H](CCCCN)NC(=O)[C@H](CO)NC(=O)[C@@H](NC(=O)[C@H](CC(=O)O)NC(=O)[C@H](CO)NC(=O)[C@@H](NC(=O)[C@H](Cc1ccccc1)NC(=O)[C@@H](NC(=O)CNC(=O)[C@H](CCC(N)=O)NC(=O)C(C)(C)NC(=O)[C@@H](N)Cc1c[nH]cn1)[C@@H](C)O)[C@@H](C)O)C(C)C)C(C)C)C(=O)N[C@@H](CC(C)C)C(=O)NC(C)(C)C(=O)N[C@H](C(=O)N[C@@H](CCC(=O)O)C(N)=O)[C@@H](C)O) [Peptide 422] | 27.6 | 123
H[Aib]QGTFTSDVSK[αMeF]LDTK([AEEA-AEEA-γGlu-γGlu-C18 diacid])RARDFVQWLLE[Aib]G (not fully specified (C-terminus)) [Peptide 428] | 33.1 | 10.5
H[Aib]QGTFTSDVSK[αMeF]LDTK([AEEA-AEEA-γGlu-C18 diacid])RARDFVQWLLE[Aib]G (not fully specified (C-terminus)) [Peptide 427] | 12.4 | 47.2
